Patent publication US20050182242A1, “Global analysis of protein activities using proteome chips” (priority 2001, published 2005)

B1: APS2: yeast GST-HisX6 fusion protein on proteome chip (protein, UniProt Q00381 1-147, looked up)
AP-2 complex subunit sigma: MAVQFILCFNKQGVVRLVRWFDVHSSDPQRSQDAIAQIYRLISSRDHKHQSNFVEFSDSTKLIYRRYAGLYFVMGVDLLDDEPIYLCHIHLFVEVLDAFFGNVCELDIVFNFYKVYMIMDEMFIGGEIQEISKDMLLERLSILDRLD
modifications: GST-HisX6 tag
notes: yeast GST-HisX6 fusion protein on proteome chip
B2: FRM2: yeast GST-HisX6 fusion protein on proteome chip (protein, UniProt P37261 1-193, looked up)
nitroreductase FRM2: MSPTGNYLNAITNRRTIYNLKPELPQGVGLDDVKRTVHVILKNTPTAFNSQVNRAVIIVGDTHKRIWDAVASAMPTAEAKKRPESCRDEAYGSVIFFTDEGPTEKLQRDFPALAAAFPTCAAHTTGAVQIQSWTALELLGLGANLQHYNDYVKSALPQDVPIAWTVQSQLVFGVPTALPEEKTFINNVINVYH
modifications: GST-His6 fusion tag
notes: as for B1
B3: SAS3: yeast GST-HisX6 fusion protein on proteome chip (protein, UniProt P34218 1-831, looked up)
Histone acetyltransferase SAS3: MSLTANDESPKPKKNALLKNLEIDDLIHSQFVRSDTNGHRTTRRLFNSDASISHRIRGSVRSDKGLNKIKKGLISQQSKLASENSSQNIVNRDNKMGAVSFPIIEPNIEVSEELKVRIKYDSIKFFNFERLISKSSVIAPLVNKNITSSGPLIGFQRRVNRLKQTWDLATENMEYPYSSDNTPFRDNDSWQWYVPYGGTIKKMKDFSTKRTLPTWEDKIKFLTFLENSKSATYINGNVSLCNHNETDQENEDRKKRKGKVPRIKNKVWFSQIEYIVLRNYEIKPWYTSPFPEHINQNKMVFICEFCLKYMTSRYTFYRHQLKCLTFKPPGNEIYRDGKLSVWEIDGRENVLYCQNLCLLAKCFINSKTLYYDVEPFIFYILTEREDTENHPYQNAAKFHFVGYFSKEKFNSNDYNLSCILTLPIYQRKGYGQFLMEFSYLLSRKESKFGTPEKPLSDLGLLTYRTFWKIKCAEVLLKLRDSARRRSNNKNEDTFQQVSLNDIAKLTGMIPTDVVFGLEQLQVLYRHKTRSLSSLDDFNYIIKIDSWNRIENIYKTWSSKNYPRVKYDKLLWEPIILGPSFGINGMMNLEPTALADEALTNETMAPVISNNTHIENYNNSRAHNKRRRRRRRSSEHKTSKLHVNNIIEPEVPATDFFEDTVSSLTEYMCDYKNTNNDRLIYQAEKRVLESIHDRKGIPRSKFSTETHWELCFTIKNSETPLGNHAARRNDTGISSLEQDEVENDVDTELYVGENAKEDEDEDEDFTLDDDIEDEQISEENDEEEDTYEEDSDDDEDGKRKGQEQDENDIESHIRKERVRKRRKITLIEDDEE
modifications: GST-His6 tag
notes: as for B1
B4: RPH1: yeast GST-HisX6 fusion protein on proteome chip (protein, UniProt P39956 1-796, looked up)
DNA damage-responsive …: MTKLIAPSEIVGGVPVFKPTYEQFEDFYAYCKAINKYGMKSGVVKVIPPKEWKDKLDLPYSAETLQKIKIKSPIQQHISGNKGLFMVQNVEKNKTYNIIQWKDLSKDYVPPEDPKARRNSRKGSVSKSTKLKLKNFESSFNIDDFEQFRTEYTIDLSDFQNTERLKFLEEYYWKTLNFTTPMYGADTPGSIFPEGLNVWNVAKLPNILDHMETKVPGVNDSYLYAGLWKASFSWHLEDQDLYSINYIHFGAPKQWYSIPQEDRFKFYKFMQEQFPEEAKNCPEFLRHKMFLASPKLLQENGIRCNEIVHHEGEFMITYPYGYHAGFNYGYNLAESVNFALEEWLPIGKKAGKCHCISDSVEIDVKKLAKSWRDNNKESKGTPPLNQLPNPAMPLLHRPTLKEMESSSLRSTSPDVGHFSNFKSKSSGVSSPLLSRMKDYSNIVEPTLEDPTLKLKRISSFQEQPLNKLLKRETSQTAMLTDHEDNIVAMSLTSMANSAASSPRLPLSRLNSSNELSNAQPLLDMTNNTLAFPRPNGPSGLNPLLYISNKNISGISHSAPHSPVNPNISLIKRVKSPNIVTLNISRESSRSPIALNYEARQQHSQQHSFSTPSTVSNLSTSVLGPLSDTNDIKTPHPERPNHKTANRILKKESPVETSKSNLILSKVASTRQEDSFTSRNDDLDKEQGSSPLNSKFAPEEIVLSGKNKIYICKECQRKFSSGHHLTRHKKSVHSGEKPHSCPKCGKRFKRRDHVLQHLNKKIPCISNETTVDAPIMNPTVQPQDGKAAINQQSTPLN
modifications: GST-His6 tag
notes: as for B1
B5: SGA1: yeast GST-HisX6 fusion protein on proteome chip (protein, UniProt P08019 1-549, looked up)
Glucoamylase, intracellular …: MARQKMFYNKLLGMLSVGFGFAWALENITIYEFDFGKGILDQSYGGVFSNNGPSQVQLRDAVLMNGTVVYDSNGAWDSSALEEWLQGQKKVSIEKIFENIGPSAVYPSISPGVVIASPSQTHPDYFYQWIRDSALTINSIVSHSAGPAIETLLQYLNVSFHLQRSNNTLGAGIGYTNDTVALGDPKWNVDNTAFTEDWGRPQNDGPALRSIAILKIIDYIKQSGTDLGAKYPFQSTADIFDDIVRWDLRFIIDHWNSSGFDLWEEVNGMHFFTLLVQLSAVDKSLSYFNASERSSPFVEELRQTRRDISKFLVDPANGFINGKYNYIVGTPMIADTLRSGLDISTLLAANTVHDAPSASHLPFDINDPAVLNTLHHLMLHMRSIYPINDSSKNATGIALGRYPEDVYDGYGFGEGNPWVLATCTASTTLYQLIYRHISEQHDLVVPMNNDCSNAFWSELVFSNLTTLGNDEGYLILEFNTPAFNQTIQKIFQLADSFLVKLKAHVGTDGELSEQFNKYTGFMQGAQHLTWSYTSFWDAYQIRQEVLQSL
modifications: GST-HisX6 tag
notes: as for B1
B6: MUM2: yeast GST-HisX6 fusion protein on proteome chip (protein, UniProt P38236 1-366, looked up)
Protein MUM2: MNYMAYDYDPQHSLETSFNNLAFHPHQQSQQQALYESGERNDARPGLMNTLGQASKMNNSMLPQGSSASPLTGQHSLNSTTNFNMPPSMNTYNYQNVPQASMRNTLNHNNIMNGATANDYWLDPMNNMTNNKDTNGNPNDSMSSMSNMTAKTSINSTAFKNSFVPFNHVTALSMNNVNSNEMNSNKDDRMEALEVELQIKESQIESLENEIQRLKKIFNEGLNYKQNEHKYEKENCHIPQTFELPASLEVIFRKLSSSLHAKEKELAETKENLESILTALALNPTNSVTKYGRYDAESIAHKMVVRLENLTNENKEMAKMLAYGRSKETQIELQLAKKENLELREKIASLEAHLASKESSKEDVAN
modifications: GST-His6 fusion tag
notes: as for B1
B7: RGD1: yeast GST-HisX6 fusion protein on proteome chip (protein, UniProt P38339 1-666, looked up)
RHO GTPase-activating protein …: MEETAKKPASATVSAKSSHDGGTDDLAHLFSTPEIKKVLNSDVAINALLSRLKQSLLTCEEFMKFIRKKYAFEEEHVQELSKQYKHFFNIQGSTNSSLKKMIHEVLGFDGKMAQVKQSYITALQKMYSEISSLLLTMTKLRKSVKENSKRLEKDVSDAIHSAEKAQSRYNSLCQDWDKLRMTDPTKTKLTLRGSKTTKEQEEELLRKIDNADLEYKQKVDHSNSLRNTFITKERPRIVQELKDLILEIDTAMTIQLQKYTIWTENLVLNTGVTISPLDSTKSMKSFAGSVSNERDLYSFLNKYNQTGKHSLLINKNLIPVSYKKHPSMNHGQKNKSPPKFAVDPSRNSIPKRMISTHNESPFLSSSSNTAAVPNANLNSATPSLNTNKQLPPTMASSISSTSNAAGAMSPSSSIVTSDTTSSITKTLDPGNNSPQIPEELINSLDSDRPISHIQTNNNMPPGVQKNFKTFGVPLESLIEFEQDMVPAIVRQCIYVIDKFGLDQEGIYRKSANVLDVSKLKEEIDKDPANISMILPSKPHSDSDIYLVGSLLKTFFASLPDSVLPKALSSEIKVCLQIEDPTTRKNFMHGLIYNLPDAQYWTLRALVFHLKRVLAHEAQNRMNLRALCIIWGPTIAPANPDDANDVNFQIMAMEVLLEVSDQAFEPE
modifications: GST-His6 tag
notes: as for B1
B8: VTC4: yeast GST-HisX6 fusion protein on proteome chip (protein, UniProt P47075 1-721, looked up)
Vacuolar transporter …: MKFGEHLSKSLIRQYSYYYISYDDLKTELEDNLSKNNGQWTQELETDFLESLEIELDKVYTFCKVKHSEVFRRVKEVQEQVQHTVRLLDSNNPPTQLDFEILEEELSDIIADVHDLAKFSRLNYTGFQKIIKKHDKKTGFILKPVFQVRLDSKPFFKENYDELVVKISQLYDIARTSGRPIKGDSSAGGKQQNFVRQTTKYWVHPDNITELKLIILKHLPVLVFNTNKEFEREDSAITSIYFDNENLDLYYGRLRKDEGAEAHRLRWYGGMSTDTIFVERKTHREDWTGEKSVKARFALKERHVNDFLKGKYTVDQVFAKMRKEGKKPMNEIENLEALASEIQYVMLKKKLRPVVRSFYNRTAFQLPGDARVRISLDTELTMVREDNFDGVDRTHKNWRRTDIGVDWPFKQLDDKDICRFPYAVLEVKLQTQLGQEPPEWVRELVGSHLVEPVPKFSKFIHGVATLLNDKVDSIPFWLPQMDVDIRKPPLPTNIEITRPGRSDNEDNDFDEDDEDDAALVAAMTNAPGNSLDIEESVGYGATSAPTSNTNHVVESANAAYYQRKIRNAENPISKKYYEIVAFFDHYFNGDQISKIPKGTTFDTQIRAPPGKTICVPVRVEPKVYFATERTYLSWLSISILLGGVSTTLLTYGSPTAMIGSIGFFITSLAVLIRTVMVYAKRVVNIRLKRAVDYEDKIGPGMVSVFLILSILFSFFCNLVAK
modifications: GST-HisX6 tag
notes: as for B1

Columns and labels:
Conditions in all cases: liposome binding signal on yeast proteome chip, Cy3-streptavidin detection
PI(4)P liposomes = experiment: Yeast proteome chip probed with PI(4)P liposomes
PI(3,4,5)P3 liposomes = experiment: Yeast proteome chip probed with PI(3,4,5)P3 liposomes
PI(3)P liposomes = experiment: Yeast proteome chip probed with PI(3)P liposomes
PI(4,5)P2 liposomes = experiment: Yeast proteome chip probed with PI(4,5)P2 liposomes
[1] = system: phosphatidylcholine (PC) liposomes; experiment: Yeast proteome chip probed with PC liposomes
Method in brief: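 Sonicated liposomes in TBS, of phosphatidylcholine with 1% (w/w) biotin-DHPE plus 5% (w/w) of the named phosphoinositide (PC-only liposomes lacking it), were incubated on blocked chips of GST-RGS-His6-tagged yeast ORF proteins for 1 h at RT. Bound liposomes were detected with Cy3- or Cy5-streptavidin after PBS washes.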

PI(3,4)P2 liposomes = experiment: Yeast proteome chip probed with PI(3,4)P2 liposomes

| Molecule | PI(4)P (PI(4)P liposomes) | PI(3, 4, 5)P3 (PI(3,4,5)P3 liposomes) | PI(3)P (PI(3)P liposomes) | PI(4, 5)P2 (PI(4,5)P2 liposomes) | PC [1] | PI(3, 4)P2 (PI(3,4)P2 liposomes) |
| --- | --- | --- | --- | --- | --- | --- |
| B1 | 159.82 | 15.97 | 39.50 | 103.65 | 58.70 | 56.51 |
| B2 | 12.63 | 16.88 | 3.50 | 75.34 | 63.39 | 59.34 |
| B3 | 16.55 | 18.68 | 2.00 | 17.85 | 54.00 | 55.57 |
| B4 | 66.19 | 9.90 | 6.00 | 18.73 | 56.93 | 90.73 |
| B5 | 41.15 | 26.55 | 16.50 | 6.75 | 52.83 | 60.59 |
| B6 | 90.15 | 63.34 | 81.50 | 38.76 | 46.66 | 49.29 |
| B7 | 127.60 | 19.35 | 6.00 | 55.31 | 54.59 | 54.31 |
| B8 | 99.07 | 25.31 | 8.50 | 26.78 | 66.03 | 30.45 |
